This is an account of results in IntAct's records for PubMed 23000721.

First the molecules themselves.
B1: Chitin biosynthesis protein CHS6 (Saccharomyces cerevisiae), P40955 (parent)
chain: MNLFWPSETKKQNEIPGGDYTPGNSPSVQKGYQFLNRDIFKSCPRIMERQFGECLHNRTHLIKDLISSGNVGLGPIEIVHMSYLNKHEKEEFGEYFYVTGIEVSGPAMPVEFLEVLKSSKRISKNISNNIILTYCCFNFFSNLDIRIRYDADDTFQTTAIDCNKETTDLTMTEKMWEETFASSVIRAIITNTNPELKPPGLVECPFYVGKDTISSCKKIIELLCRFLPRSLNCGWDSTKSMQATIVNNYLMYSLKSFIAITPSLVDFTIDYLKGLTKKDPIHDIYYKTAMITILDHIETKELDMITILNETLDPLLSLLNDLPPRDADSARLMNCMSDLLNIQTNFLLNRGDYELALGVSNTSTELALDSFESWYNLARCHIKKEEYEKALFAINSMPRLRKNDGHLETMYSRFLTSNYYKKPLNGTREHYDLTAMEFTNLSGTLRNWKEDELKRQIFGRIAMINEKKIGYTKEIWDDIAIKLGPICGPQSVNLINYVSPQEVKNIKNINLIARNTIGKQLGWFSGKIYGLLMEIVNKIGWNGLLNIRTEAFMMETEFYQASNNIIDENGHIPMESRKKRFCEGWLDDLFLDLYQDLKLSKISLSNKDEKHSGLEWELLGLIMLRTWHWEDAVACLRTSIVARFDPVSCQQLLKIYLQPPKNIQEVTLLDTDTIISLLIKKISYDCRYYNYCQIFNLQLLEKLCNELGTHILRNKILLQPSIGDEIMVMIDAMLAWIADLDHTVQP
partner: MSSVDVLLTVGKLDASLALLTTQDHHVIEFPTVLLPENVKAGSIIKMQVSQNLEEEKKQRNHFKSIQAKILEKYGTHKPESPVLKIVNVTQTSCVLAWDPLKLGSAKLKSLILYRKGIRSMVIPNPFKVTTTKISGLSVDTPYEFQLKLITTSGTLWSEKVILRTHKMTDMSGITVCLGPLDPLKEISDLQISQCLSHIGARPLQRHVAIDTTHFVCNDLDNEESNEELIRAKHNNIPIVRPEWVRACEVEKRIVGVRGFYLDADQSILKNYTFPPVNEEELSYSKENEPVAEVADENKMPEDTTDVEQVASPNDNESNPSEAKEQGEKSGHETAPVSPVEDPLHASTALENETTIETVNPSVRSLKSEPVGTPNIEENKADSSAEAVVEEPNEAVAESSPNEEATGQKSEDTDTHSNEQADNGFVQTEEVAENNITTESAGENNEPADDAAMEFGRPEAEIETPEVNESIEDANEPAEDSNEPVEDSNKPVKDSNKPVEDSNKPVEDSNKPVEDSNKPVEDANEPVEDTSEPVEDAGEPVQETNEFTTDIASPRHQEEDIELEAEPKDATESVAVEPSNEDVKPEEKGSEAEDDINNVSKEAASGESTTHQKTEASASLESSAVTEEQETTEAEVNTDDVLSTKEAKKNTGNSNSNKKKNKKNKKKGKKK
B2: Chitin biosynthesis protein CHS5 (Saccharomyces cerevisiae), Q12114 (parent)
chain: B1 partner
partner: B1 chain

The variants in the first assay derive from B1. The settings on record: with chs5_yeast CHS5, Q12114.
With I305R, the “effect of a mutation on the interaction” value is recorded as “disrupting interaction”.

The next assay covers variants of B2. As to conditions: with chs6_yeast CHS6, P40955.
For F63E, the “effect of a mutation on the interaction” value is on record as “disrupting interaction”. Same read-out and setting: as for Q67E, the entry is “disrupting interaction”.
